Ends that are not written are not given here.

Data set [1] concerns the target T1, CSP in pancreatic tumors (Homo sapiens, UniProt Q15149). The data set is described as follows: Ex vivo planar scintigraphy of resected tumor and adjacent normal tissue. In kind it is in vivo. On the set-up: from tissue; host or cells: pancreatic tumours of patients, imaged in vivo and as resected specimens. On the procedure: Following surgery, ex vivo planar images of the resected tumor and adjacent normal tissue (e.g., pancreas and duodenum) were obtained at 28 h post-injection. This timing aligns with surgical resection, allowing immediate imaging of fresh specimens. A white light image was collected for one patient to confirm tumor localization, but these images were not systematically obtained.
For ex vivo images, tumor ROIs were drawn using white light imaging, with the surrounding tissue considered background. […] The activity was calculated using planar data methods, ignoring the self-attenuation of the tissue because of tissue thickness.

The conditions of data set [2]: human, in vivo. How it is done: (§1) Each patient received a single intravenous 100 µg bolus dose of PTP-01 labeled with 370 MBq ^111In. Whole-body planar scintigraphy was performed at 10 min post-injection, followed by scans at 1, 2, 3, 4, 20, and 50 h. SPECT/CT imaging was performed at 4, 20, and 50 h post-injection using a Siemens Symbia™ T6 dual-head SPECT/CT system with low-energy high-resolution (LEHR) collimators optimized for ^111In imaging. […] Quantitative analysis was conducted at the time using fused SPECT/CT images, and planar imaging remains available for biodistribution assessment. Tumor ROIs were initially defined using fused SPECT/CT images and cross-referenced with planar data for consistency. […] However, attenuation correction was not applied to the SPECT images, as full quantitative SPECT reconstruction was not supported by the scanner at the time. Quantitative analysis (%ID) was derived from planar scintigraphy data using calibration factors from a standard source (syringe) imaged under identical conditions. While SPECT/CT facilitated ROI placement, quantitative measurements were based on planar scintigraphy due to the absence of attenuation-corrected SPECT data. […]
Blood clearance parameters were calculated individually for each patient based on a biexponential fit to blood %ID/g data. […]

Data set [3] has as its target T1, CSP in pancreatic tumors. On the set-up: CSP, typically localized intracellularly in healthy cells, is aberrantly expressed on the surface of cancer cells; from tissue; host or cells: pancreatic tumours of patients, imaged in vivo and as resected specimens. The note with it: in vivo, iv, 100 ug. On the procedure: as §1
For in vivo images, we generated eight ROIs for each patient, including bladder, heart, left kidney, right kidney, liver, syringe, whole body, and tumor. […] Results were expressed as percent injected dose (%ID). […]

In data set [4] the test system is CSP. The settings on record: input parameter applied to all patients in the Krogh cylinder model, no reference given, cited from earlier work.
Data set [5] deals with CSP (plectin) in murine tumor models. The settings on record: preclinical SPECT imaging of murine tumor models; cited from earlier work. An excerpt: The CSP-targeting peptide KTLLPTP has been adapted for numerous applications as a targeting ligand for imaging agents. […] Tumor models with higher CSP levels also had correspondingly high tumor uptake of ^99mTc-KTLLPTP. Here we report the results of a phase 0 trial examining a tetrameric version of KTLLPTP labeled with ^111In called PTP-01 (NCT01962909) in patients with resectable p ...

T1 sequence (Q15149 whole entry): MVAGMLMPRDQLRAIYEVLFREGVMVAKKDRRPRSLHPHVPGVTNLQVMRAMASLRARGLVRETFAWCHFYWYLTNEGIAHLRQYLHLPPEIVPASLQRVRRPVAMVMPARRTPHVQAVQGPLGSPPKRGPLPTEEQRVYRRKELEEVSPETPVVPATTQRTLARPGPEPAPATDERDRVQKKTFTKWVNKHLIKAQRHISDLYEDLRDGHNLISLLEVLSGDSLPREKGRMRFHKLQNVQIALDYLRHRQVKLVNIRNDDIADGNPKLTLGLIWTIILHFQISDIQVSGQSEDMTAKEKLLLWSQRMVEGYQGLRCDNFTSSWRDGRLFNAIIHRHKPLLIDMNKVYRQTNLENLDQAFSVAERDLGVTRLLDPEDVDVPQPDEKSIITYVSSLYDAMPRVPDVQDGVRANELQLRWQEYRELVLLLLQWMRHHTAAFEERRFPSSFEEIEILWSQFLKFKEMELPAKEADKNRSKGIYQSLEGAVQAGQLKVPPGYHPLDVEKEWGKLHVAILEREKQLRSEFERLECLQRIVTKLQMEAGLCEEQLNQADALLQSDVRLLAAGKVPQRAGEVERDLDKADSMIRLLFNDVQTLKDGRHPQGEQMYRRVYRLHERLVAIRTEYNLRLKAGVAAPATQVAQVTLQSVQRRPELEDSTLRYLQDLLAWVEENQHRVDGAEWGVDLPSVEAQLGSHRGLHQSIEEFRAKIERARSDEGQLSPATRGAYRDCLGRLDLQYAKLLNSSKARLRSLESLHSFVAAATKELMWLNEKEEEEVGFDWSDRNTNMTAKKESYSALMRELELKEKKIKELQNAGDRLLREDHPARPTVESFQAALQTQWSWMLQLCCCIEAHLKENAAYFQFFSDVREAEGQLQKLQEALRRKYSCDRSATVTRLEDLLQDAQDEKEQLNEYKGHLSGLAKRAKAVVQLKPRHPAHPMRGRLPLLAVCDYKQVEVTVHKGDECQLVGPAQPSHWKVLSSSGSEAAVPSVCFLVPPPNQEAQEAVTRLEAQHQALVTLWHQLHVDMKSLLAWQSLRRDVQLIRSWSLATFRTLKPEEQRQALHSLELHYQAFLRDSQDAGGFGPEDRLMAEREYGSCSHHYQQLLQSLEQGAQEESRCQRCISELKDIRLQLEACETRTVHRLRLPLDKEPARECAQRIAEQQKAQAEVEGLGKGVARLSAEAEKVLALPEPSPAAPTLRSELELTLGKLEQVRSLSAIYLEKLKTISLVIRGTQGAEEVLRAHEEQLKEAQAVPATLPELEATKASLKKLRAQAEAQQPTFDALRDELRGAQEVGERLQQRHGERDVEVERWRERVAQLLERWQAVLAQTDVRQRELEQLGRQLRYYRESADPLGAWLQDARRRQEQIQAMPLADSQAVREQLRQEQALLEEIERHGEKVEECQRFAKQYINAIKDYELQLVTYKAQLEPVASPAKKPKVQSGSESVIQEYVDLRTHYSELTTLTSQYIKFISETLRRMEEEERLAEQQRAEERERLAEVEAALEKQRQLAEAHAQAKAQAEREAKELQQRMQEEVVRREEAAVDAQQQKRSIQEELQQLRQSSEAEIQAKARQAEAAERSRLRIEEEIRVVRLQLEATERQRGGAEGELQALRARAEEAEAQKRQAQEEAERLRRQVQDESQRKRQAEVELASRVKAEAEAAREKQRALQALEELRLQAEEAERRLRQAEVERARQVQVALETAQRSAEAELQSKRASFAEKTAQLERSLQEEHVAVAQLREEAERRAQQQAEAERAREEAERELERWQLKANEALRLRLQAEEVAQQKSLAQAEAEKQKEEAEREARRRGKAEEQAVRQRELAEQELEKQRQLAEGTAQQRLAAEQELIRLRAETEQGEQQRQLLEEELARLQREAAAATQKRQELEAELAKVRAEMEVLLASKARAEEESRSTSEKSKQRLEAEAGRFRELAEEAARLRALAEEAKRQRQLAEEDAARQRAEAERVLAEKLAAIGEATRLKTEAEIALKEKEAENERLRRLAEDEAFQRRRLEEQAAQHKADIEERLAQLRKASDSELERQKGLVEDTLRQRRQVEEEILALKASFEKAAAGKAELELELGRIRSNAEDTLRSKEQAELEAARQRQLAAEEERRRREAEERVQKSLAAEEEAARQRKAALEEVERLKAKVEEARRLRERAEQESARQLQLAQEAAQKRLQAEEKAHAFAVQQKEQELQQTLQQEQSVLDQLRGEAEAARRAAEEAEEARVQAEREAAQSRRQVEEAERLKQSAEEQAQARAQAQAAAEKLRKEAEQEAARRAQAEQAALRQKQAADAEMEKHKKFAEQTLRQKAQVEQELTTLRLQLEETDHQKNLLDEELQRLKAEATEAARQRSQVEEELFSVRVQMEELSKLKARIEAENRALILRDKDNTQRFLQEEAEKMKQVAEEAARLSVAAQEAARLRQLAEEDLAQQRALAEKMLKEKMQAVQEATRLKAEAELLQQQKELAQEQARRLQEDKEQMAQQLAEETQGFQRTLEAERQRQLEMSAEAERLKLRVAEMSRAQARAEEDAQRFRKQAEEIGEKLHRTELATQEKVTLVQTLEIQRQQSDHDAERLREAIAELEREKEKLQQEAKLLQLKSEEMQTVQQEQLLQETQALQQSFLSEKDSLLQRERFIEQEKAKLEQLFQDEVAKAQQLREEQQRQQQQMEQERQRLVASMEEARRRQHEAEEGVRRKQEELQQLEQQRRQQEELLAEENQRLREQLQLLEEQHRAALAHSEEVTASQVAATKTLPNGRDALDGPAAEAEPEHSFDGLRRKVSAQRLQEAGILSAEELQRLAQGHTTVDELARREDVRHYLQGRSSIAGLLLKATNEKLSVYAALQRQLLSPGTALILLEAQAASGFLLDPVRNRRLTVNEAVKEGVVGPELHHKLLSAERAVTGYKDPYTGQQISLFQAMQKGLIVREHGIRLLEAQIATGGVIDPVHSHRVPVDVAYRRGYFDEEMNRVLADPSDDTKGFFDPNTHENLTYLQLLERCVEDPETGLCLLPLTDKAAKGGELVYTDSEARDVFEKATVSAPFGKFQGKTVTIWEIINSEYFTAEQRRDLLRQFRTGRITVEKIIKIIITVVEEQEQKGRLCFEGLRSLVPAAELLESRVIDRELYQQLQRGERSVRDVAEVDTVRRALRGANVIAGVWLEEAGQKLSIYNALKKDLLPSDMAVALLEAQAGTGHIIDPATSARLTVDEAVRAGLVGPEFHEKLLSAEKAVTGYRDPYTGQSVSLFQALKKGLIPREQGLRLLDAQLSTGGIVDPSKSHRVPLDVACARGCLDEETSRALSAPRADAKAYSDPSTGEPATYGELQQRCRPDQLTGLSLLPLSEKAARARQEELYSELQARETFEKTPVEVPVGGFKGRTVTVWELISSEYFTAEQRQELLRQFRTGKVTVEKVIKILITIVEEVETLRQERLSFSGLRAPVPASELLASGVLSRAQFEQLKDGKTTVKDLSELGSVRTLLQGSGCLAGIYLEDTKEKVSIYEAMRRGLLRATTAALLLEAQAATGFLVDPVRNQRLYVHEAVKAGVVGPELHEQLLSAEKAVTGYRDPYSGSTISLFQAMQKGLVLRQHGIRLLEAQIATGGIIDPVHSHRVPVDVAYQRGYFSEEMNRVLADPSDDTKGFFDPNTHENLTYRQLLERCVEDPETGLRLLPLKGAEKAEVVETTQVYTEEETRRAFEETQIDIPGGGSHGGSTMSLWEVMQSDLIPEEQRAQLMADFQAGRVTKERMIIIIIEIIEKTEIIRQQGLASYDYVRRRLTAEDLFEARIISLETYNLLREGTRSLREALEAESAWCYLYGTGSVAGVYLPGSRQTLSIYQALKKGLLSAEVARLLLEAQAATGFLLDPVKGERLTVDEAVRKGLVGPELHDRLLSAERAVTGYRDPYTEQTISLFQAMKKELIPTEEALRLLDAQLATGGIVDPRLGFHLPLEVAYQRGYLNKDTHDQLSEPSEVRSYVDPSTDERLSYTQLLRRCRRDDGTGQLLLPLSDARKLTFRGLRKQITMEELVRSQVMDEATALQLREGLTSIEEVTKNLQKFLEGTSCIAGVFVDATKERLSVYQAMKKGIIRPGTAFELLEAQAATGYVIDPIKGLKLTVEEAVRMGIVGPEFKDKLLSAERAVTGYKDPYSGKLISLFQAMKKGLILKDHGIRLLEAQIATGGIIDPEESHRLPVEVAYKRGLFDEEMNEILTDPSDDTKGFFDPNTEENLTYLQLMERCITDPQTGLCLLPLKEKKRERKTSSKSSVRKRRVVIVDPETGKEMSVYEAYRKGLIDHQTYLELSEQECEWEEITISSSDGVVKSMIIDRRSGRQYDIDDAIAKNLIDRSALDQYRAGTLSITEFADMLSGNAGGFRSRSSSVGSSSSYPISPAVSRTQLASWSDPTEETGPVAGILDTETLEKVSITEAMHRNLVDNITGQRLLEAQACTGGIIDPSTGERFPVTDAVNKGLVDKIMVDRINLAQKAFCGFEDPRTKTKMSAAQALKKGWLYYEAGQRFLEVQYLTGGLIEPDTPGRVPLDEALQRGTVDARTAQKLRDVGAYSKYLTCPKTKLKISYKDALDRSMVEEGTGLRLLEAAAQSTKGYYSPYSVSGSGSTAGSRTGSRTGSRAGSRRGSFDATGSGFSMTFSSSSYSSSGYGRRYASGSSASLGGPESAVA

As for “PTP-01: tetrameric version of KTLLPTP on a branched PEG linker, labeled with ^111In via DOTA; CSP-targeting imaging agent (also: tetramer on branched PEG linker, DOTA chelator labelled with 111In)”, in data set [1] (all three patients, confirmed by ex vivo planar scintigraphy), the tumor-to-background ratio entry is recorded as “exceeding 2”. For the same substance, in data set [1] (ex vivo planar scintigraphy of resected specimens, 28 h post-injection, mean across patients), the tumor-to-background ratio was 2.18 ± 0.14. Moreover, in data set [2], the “blood concentrations, fold higher than in the other two patients” value is 50-70 fold. The “elimination half-life (T1/2)” value in data set [2] (iv) was in the range of 5 to 22 h. The “average cumulative retention in tumor” value in data set [3] is 8.90 ± 3.31 %ID. Also, in data set [4], the “Association rate constant (kon)” value is 100000 M⁻¹ s⁻¹, the Internalization half-life is listed as 13 h and the Residualization half-life is reported as 120 h. Also, the Kd (in general, the equilibrium constant for the complex coming apart) in data set [4] (read-out: Dissociation constant (KD)) was 0.09 µM.

Turning to ^99mTc-KTLLPTP, the “tumor accumulation, biodistribution and blood clearance” value in data set [5] is “a tumor accumulation and favorable biodistribution in addition to fast blood clearance”.

The values above are taken from paper PMC12162372, “Imaging Cell Surface Plectin in PDAC Patients – A First-In-Human Phase 0 Study Report” (Molecular Imaging and Biology, 2025).
